The text below walks through data of PMC5402698.

For data set [1], the target named is T1, EcoRV endonuclease (wild type) (UniProt P04390 2-245). The data set can be described thus: X-ray crystallography.
Data set [2] addresses T1, EcoRV endonuclease (wild type). As to the kind of experiment: X-ray crystallography. The source holds these as a separate data set.
Data set [3] shares this target. As to the kind of experiment: NMR.
The target is the same in data set [4]. As to the kind of experiment: NMR. The source holds these as a separate data set.
The target is the same in data set [5]. As to the kind of experiment: NMR. The source holds these as a separate data set.

T1 sequence (P04390 2-245): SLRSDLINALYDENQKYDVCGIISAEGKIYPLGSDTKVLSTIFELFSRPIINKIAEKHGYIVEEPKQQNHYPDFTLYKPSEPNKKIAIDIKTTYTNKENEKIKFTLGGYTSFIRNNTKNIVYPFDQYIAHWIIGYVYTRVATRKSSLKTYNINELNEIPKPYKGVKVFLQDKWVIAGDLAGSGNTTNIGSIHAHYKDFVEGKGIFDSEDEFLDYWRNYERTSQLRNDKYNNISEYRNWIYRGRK

B1: cognate 12 bp crystal duplex (dsDNA)
DNA 1: AAAGATATCTTT
DNA 2: AAAGATATCTTT
For the molecule B1, the binding result in data set [1] is on record as “binds”.

B2: cleaved 12 bp crystal duplex (dsDNA)
DNA 1: AAAGAT
DNA 2: ATCTTT
For B2, the binding result in data set [2] is given as “binds”.

B3: nonspecific 16 bp inverted site CTATAG (dsDNA)
DNA 1: GCAAACTATAGTTTCG
DNA 2: CGAAACTATAGTTTGC
Regarding B3, the binding result in data set [3] is given as “binds”.

B4: cognate 16 bp GATATC (dsDNA)
DNA 1: GCAAAGATATCTTTCG
DNA 2: CGAAAGATATCTTTGC
In the case of B4, the binding result in data set [4] is given as “binds”.

B5: cleaved 24 bp duplex products (dsDNA)
DNA 1: CGCTGGAAAGAT
DNA 2: ATCTTTCCAGCG
DNA 3: ATCTTTGGAGGC
DNA 4: GCCTCCAAAGAT
Consider B5, for which the binding result in data set [5] was “binds”.
